Source: US20040157289

Columns and labels:
[1] = Superose gel exclusion chromatography, self-association
[2] = aggregate size given for comparison with the gel exclusion result, self-association

Substance	aggregate size [1]	aggregate size [2]
alpha A crystallin Δ51+ construct	calculated to be 60,000 daltons, which corresponds in size to a tetramer	–
wild type α-crystallin (alpha A crystallin)	–	about 800,000 daltons, depending on solution conditions
